This note sets out measurements from patent US20190010458.

The data set deals with T1, HA-Etv2 (Mus musculus) (UniProt P41163).
T1 sequence: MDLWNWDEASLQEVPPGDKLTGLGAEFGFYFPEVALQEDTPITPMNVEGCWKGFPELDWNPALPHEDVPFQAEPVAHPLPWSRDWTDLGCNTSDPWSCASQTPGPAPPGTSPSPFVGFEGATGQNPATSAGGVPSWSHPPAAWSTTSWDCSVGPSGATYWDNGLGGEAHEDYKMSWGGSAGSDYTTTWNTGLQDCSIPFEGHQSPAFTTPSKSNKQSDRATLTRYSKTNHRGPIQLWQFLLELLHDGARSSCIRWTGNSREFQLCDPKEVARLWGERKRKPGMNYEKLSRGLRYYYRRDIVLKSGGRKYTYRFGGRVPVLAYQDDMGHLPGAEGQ
To be noted: ChIP-qPCR with anti-HA, Dox-induced EBs. In general terms: Quantitative PCR measures a nucleic acid by following its amplification.

Take “miR-130a upstream promoter region (ChIP amplicon)”: the binding signal (fold enrichment) was 15.
